In the supplement of paper PMC10567573:

B1: INTS3 (parent)
chain: DLNSKGKKREFRFHPIKETVVEEP
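Note: lentivirally expressed fusions sorted by FACS into six bins by GFP to DsRed ratio, PSI derived from sequencing read proportions per bin multiplied by bin number.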

Variants of: B1
Experiment: protein stability index of a GFP-peptide fusion (GPS, HEK-293T) (PSI 1-6); higher = more stable
Settings: c terminus: a fixed tail appended
With I16A the protein stability index was 2.06.
I16N showed a protein stability index of 3.04.
I16C showed a protein stability index of 1.84.
For I16E, the protein stability index was 2.96.
I16D showed a protein stability index of 3.02.
I16W showed a protein stability index of 2.12.
With I16Q the protein stability index was 2.34.
Work on I16G yielded a protein stability index of 2.29.
I16M gave a protein stability index of 2.79.
Work on I16P yielded a protein stability index of 2.28.
Work on I16K yielded a protein stability index of 2.21.
I16L gave a protein stability index of 2.24.
Variant I16F has a protein stability index of 1.88.
Variant I16Y has a protein stability index of 2.36.
Variant I16R has a protein stability index of 1.77.
Variant I16T has a protein stability index of 2.12.
For I16H, the protein stability index was 2.31.
In the case of I16S, the protein stability index is reported as 1.99.
I16V showed a protein stability index of 2.71.
Work on T19A yielded a protein stability index of 2.07.
Variant T19Y has a protein stability index of 1.92.
Variant T19S has a protein stability index of 2.12.
T19K gave a protein stability index of 2.
Work on T19P yielded a protein stability index of 1.74.
In the case of T19R, the protein stability index is reported as 2.04.
For T19W, the protein stability index was 2.05.
T19L gave a protein stability index of 2.74.
For T19E, the protein stability index was 2.29.
T19M gave a protein stability index of 2.31.
Variant T19V has a protein stability index of 1.86.
T19F gave a protein stability index of 2.2.
With T19Q the protein stability index was 1.96.
T19C showed a protein stability index of 2.34.
For T19N, the protein stability index was 2.31.
With T19H the protein stability index was 2.42.
T19D gave a protein stability index of 2.87.
T19I gave a protein stability index of 1.94.
For T19G, the protein stability index was 2.62.
In the case of E23S, the protein stability index is reported as 1.58.
Variant E23W has a protein stability index of 1.48.
E23Q showed a protein stability index of 2.35.
E23I showed a protein stability index of 2.24.
E23A gave a protein stability index of 1.81.
E23D showed a protein stability index of 2.45.
For E23N, the protein stability index was 1.73.
In the case of E23M, the protein stability index is reported as 2.02.
In the case of E23F, the protein stability index is reported as 1.71.
E23G showed a protein stability index of 2.13.
For E23P, the protein stability index was 2.36.
Work on E23C yielded a protein stability index of 3.71.
With E23Y the protein stability index was 1.71.
For E23T, the protein stability index was 2.24.
In the case of E23V, the protein stability index is reported as 2.25.
E23H gave a protein stability index of 1.99.
Variant E23K has a protein stability index of 2.27.
E23L gave a protein stability index of 2.19.
In the case of E23R, the protein stability index is reported as 2.04.
Variant E22R has a protein stability index of 1.75.
E22P showed a protein stability index of 1.96.
With E22M the protein stability index was 1.57.
Variant E22W has a protein stability index of 2.11.
Variant E22F has a protein stability index of 2.01.
E22S showed a protein stability index of 1.92.
In the case of E22H, the protein stability index is reported as 1.91.
Variant E22I has a protein stability index of 2.21.
E22N showed a protein stability index of 1.69.
E22G showed a protein stability index of 1.79.
Variant E22Y has a protein stability index of 1.87.
For E22K, the protein stability index was 2.1.
In the case of E22Q, the protein stability index is reported as 1.64.
E22A showed a protein stability index of 2.22.
E22V gave a protein stability index of 1.69.
With E22L the protein stability index was 1.91.
E22T gave a protein stability index of 1.79.
For E22C, the protein stability index was 2.06.
For E22D, the protein stability index was 2.07.
For P24D, the protein stability index was 2.4.
With P24C the protein stability index was 2.54.
Variant P24V has a protein stability index of 2.46.
For P24H, the protein stability index was 2.36.
With P24A the protein stability index was 2.2.
For P24N, the protein stability index was 2.
With P24G the protein stability index was 2.25.
Variant P24K has a protein stability index of 2.08.
In the case of P24I, the protein stability index is reported as 1.68.
For P24T, the protein stability index was 2.38.
P24Q showed a protein stability index of 2.03.
P24E gave a protein stability index of 2.6.
P24R gave a protein stability index of 2.19.
In the case of P24W, the protein stability index is reported as 2.84.
For P24Y, the protein stability index was 2.32.
P24S showed a protein stability index of 2.22.
P24L showed a protein stability index of 2.35.
In the case of P24M, the protein stability index is reported as 1.92.
With P24F the protein stability index was 2.81.
In the case of V21P, the protein stability index is reported as 2.22.
V21R showed a protein stability index of 1.6.
Work on V21S yielded a protein stability index of 2.1.
V21L showed a protein stability index of 2.54.
For V21H, the protein stability index was 2.12.
With V21K the protein stability index was 2.01.
V21Y showed a protein stability index of 2.
V21F gave a protein stability index of 1.96.
With V21N the protein stability index was 2.36.
Work on V21M yielded a protein stability index of 2.08.
Work on V21E yielded a protein stability index of 3.15.
V21Q gave a protein stability index of 2.06.
V21W gave a protein stability index of 1.64.
Work on V21D yielded a protein stability index of 2.71.
Variant V21T has a protein stability index of 2.62.
V21C gave a protein stability index of 2.49.
V21G gave a protein stability index of 1.97.
Work on V21A yielded a protein stability index of 2.01.
V21I showed a protein stability index of 1.99.
With P15E the protein stability index was 3.2.
Work on P15D yielded a protein stability index of 3.57.
Variant P15F has a protein stability index of 2.44.
Work on P15K yielded a protein stability index of 3.18.
In the case of P15L, the protein stability index is reported as 2.82.
In the case of P15N, the protein stability index is reported as 3.65.
Work on P15Y yielded a protein stability index of 2.74.
Work on P15A yielded a protein stability index of 2.96.
P15T gave a protein stability index of 2.96.
For P15H, the protein stability index was 3.09.
Work on P15I yielded a protein stability index of 2.65.
For P15M, the protein stability index was 2.29.
P15C gave a protein stability index of 2.54.
Variant P15G has a protein stability index of 3.15.
P15S showed a protein stability index of 2.37.
In the case of P15R, the protein stability index is reported as 2.9.
With P15V the protein stability index was 3.25.
Work on P15W yielded a protein stability index of 2.28.
Variant P15Q has a protein stability index of 2.6.
In the case of K17C, the protein stability index is reported as 2.67.
For K17R, the protein stability index was 1.69.
Variant K17Q has a protein stability index of 3.01.
K17F gave a protein stability index of 2.05.
K17Y gave a protein stability index of 2.
K17L gave a protein stability index of 3.26.
With K17A the protein stability index was 2.5.
K17G gave a protein stability index of 2.91.
K17N showed a protein stability index of 2.6.
K17S showed a protein stability index of 3.25.
Work on K17P yielded a protein stability index of 1.98.
For K17H, the protein stability index was 2.31.
In the case of K17I, the protein stability index is reported as 1.94.
K17D showed a protein stability index of 3.93.
For K17V, the protein stability index was 2.69.
K17T gave a protein stability index of 2.77.
K17E gave a protein stability index of 3.48.
Variant K17M has a protein stability index of 2.69.
Work on K17W yielded a protein stability index of 1.8.
In the case of V20W, the protein stability index is reported as 3.44.
In the case of V20C, the protein stability index is reported as 2.29.
V20A gave a protein stability index of 2.3.
Variant V20G has a protein stability index of 2.07.
In the case of V20Y, the protein stability index is reported as 1.92.
For V20P, the protein stability index was 2.73.
V20D showed a protein stability index of 2.87.
Variant V20Q has a protein stability index of 2.65.
Work on V20E yielded a protein stability index of 2.54.
V20I gave a protein stability index of 1.97.
Work on V20N yielded a protein stability index of 2.37.
Work on V20M yielded a protein stability index of 2.25.
In the case of V20S, the protein stability index is reported as 2.07.
Variant V20F has a protein stability index of 1.9.
Variant V20R has a protein stability index of 1.77.
Work on V20H yielded a protein stability index of 2.6.
Work on V20L yielded a protein stability index of 1.99.
For V20T, the protein stability index was 2.09.
For V20K, the protein stability index was 2.16.
Variant H14V has a protein stability index of 2.73.
H14I gave a protein stability index of 3.57.
With H14T the protein stability index was 3.7.
H14M gave a protein stability index of 3.53.
In the case of H14P, the protein stability index is reported as 4.35.
H14N showed a protein stability index of 3.84.
For H14K, the protein stability index was 3.91.
Work on H14R yielded a protein stability index of 3.88.
In the case of H14Q, the protein stability index is reported as 3.78.
In the case of H14W, the protein stability index is reported as 3.44.
With H14S the protein stability index was 3.89.
Work on H14G yielded a protein stability index of 4.02.
Variant H14F has a protein stability index of 3.34.
For H14E, the protein stability index was 4.13.
In the case of H14L, the protein stability index is reported as 4.01.
Variant H14Y has a protein stability index of 3.74.
In the case of E18T, the protein stability index is reported as 2.7.
E18A gave a protein stability index of 2.42.
E18I gave a protein stability index of 1.96.
Variant E18V has a protein stability index of 1.86.
Work on E18F yielded a protein stability index of 2.1.
With E18L the protein stability index was 2.83.
For E18C, the protein stability index was 2.48.
For E18Q, the protein stability index was 1.58.
With E18S the protein stability index was 1.94.
E18K showed a protein stability index of 1.79.
Work on E18G yielded a protein stability index of 2.1.
Work on E18H yielded a protein stability index of 2.13.
For E18W, the protein stability index was 2.75.
In the case of E18M, the protein stability index is reported as 2.28.
With E18D the protein stability index was 2.68.
E18P showed a protein stability index of 2.19.
With E18Y the protein stability index was 2.41.
In the case of E18R, the protein stability index is reported as 1.87.
E18N showed a protein stability index of 1.63.
